# Laboratory results published in PMC3467252.
# Tests used:
# Assay in all cases: SPR; surface plasmon resonance; who was immobilised is not told in what was shown; mean +/- 95% CI, n=3
# [1] = target: TACI-Fc (extracellular domain of the BLyS receptor TACI fused to the Fc region of human IgG1) (UniProt O14836)
# BAFFR-Fc = BAFFR-Fc (UniProt Q96RJ3)
# BCMA-Fc = BCMA-Fc (UniProt Q02223)
# Chain of UniProt Q02223 (Q02223 1-54): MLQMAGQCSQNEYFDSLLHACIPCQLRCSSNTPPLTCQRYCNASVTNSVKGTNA
# Chain of UniProt Q96RJ3 (Q96RJ3 1-78): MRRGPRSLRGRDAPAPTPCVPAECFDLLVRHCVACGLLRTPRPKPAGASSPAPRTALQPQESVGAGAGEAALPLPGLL
# Chain of UniProt O14836 (O14836 1-165): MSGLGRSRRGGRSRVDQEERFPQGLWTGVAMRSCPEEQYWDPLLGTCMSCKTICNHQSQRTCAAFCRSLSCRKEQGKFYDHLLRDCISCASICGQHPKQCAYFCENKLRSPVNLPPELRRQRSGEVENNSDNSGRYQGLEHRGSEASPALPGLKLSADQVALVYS
substance,measurement,setting,value
BLyS-gelonin fusion toxin,Kd,[1],0.8 nM
same,Kd,BAFFR-Fc,2.6 nM
same,Kd,BCMA-Fc,6.2 nM
